Laboratory results published in US20210032299A1 (Eli Lilly, published 2021).
Starred links: 1 amine or outer side, 2 acyl side, 3 side chain; linkers in the order of their positions; H or OH if unused. Non-standard residues stand in square brackets, D forms with d. Groups on a side chain read outwards from the residue. No end group written: not given here. *: point of attachment. C20 diacid = O=C(O)CCCCCCCCCCCCCCCCCCC(=O)*; C18 diacid = O=C(O)CCCCCCCCCCCCCCCCC(=O)*; αMePhe(2-F) = C[C@](N)(Cc1ccccc1F)C(=O)O; γGlu = O=C(O)[C@H](CCC(=O)[*:2])N[*:1]; αMeF = C[C@](N)(Cc1ccccc1)C(=O)O; 4Pal = N[C@@H](Cc1ccncc1)C(=O)O; AEEA = NCCOCCOCC(=O)O; Aib = CC(C)(N)C(=O)O

T1: human glucose-dependent insulinotropic peptide receptor (human, UniProt P48546 22-466)
T1 sequence (looked up): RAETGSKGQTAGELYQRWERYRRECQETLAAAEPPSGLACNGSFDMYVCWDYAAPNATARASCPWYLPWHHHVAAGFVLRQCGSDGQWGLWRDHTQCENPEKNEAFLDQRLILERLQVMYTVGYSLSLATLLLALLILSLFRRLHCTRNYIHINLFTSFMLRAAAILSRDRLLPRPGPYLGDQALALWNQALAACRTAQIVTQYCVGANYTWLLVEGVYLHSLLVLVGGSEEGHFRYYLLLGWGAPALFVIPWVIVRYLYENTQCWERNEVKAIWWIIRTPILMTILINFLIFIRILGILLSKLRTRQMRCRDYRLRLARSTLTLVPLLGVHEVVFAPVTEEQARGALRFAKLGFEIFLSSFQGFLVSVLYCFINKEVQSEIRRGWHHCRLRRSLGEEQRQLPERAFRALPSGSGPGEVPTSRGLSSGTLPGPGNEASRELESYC


What was measured:
Assay in all cases: cell-based or functional assay
[1] = target: human glucagon receptor (human, UniProt P47871 26-477)
Sequence of human glucagon receptor (P47871 26-477): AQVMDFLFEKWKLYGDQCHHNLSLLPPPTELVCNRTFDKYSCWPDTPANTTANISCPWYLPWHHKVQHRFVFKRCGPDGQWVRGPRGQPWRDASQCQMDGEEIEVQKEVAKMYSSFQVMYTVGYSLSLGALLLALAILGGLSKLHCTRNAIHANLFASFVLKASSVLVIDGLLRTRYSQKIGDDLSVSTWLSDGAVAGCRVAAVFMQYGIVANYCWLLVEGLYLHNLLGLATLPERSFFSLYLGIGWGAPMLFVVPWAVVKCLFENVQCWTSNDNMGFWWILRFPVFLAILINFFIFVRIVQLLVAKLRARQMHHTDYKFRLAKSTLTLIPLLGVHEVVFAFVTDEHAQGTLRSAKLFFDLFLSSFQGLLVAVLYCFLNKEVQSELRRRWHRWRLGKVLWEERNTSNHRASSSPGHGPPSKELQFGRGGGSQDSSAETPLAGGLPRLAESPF

[2] = target: T1, human glucose-dependent insulinotropic …
[3] = target: human GLP-1 receptor (human, UniProt P43220 24-463)

Row | Binder | hGcgR cAMP Rel EC50 [1] [nM] | hGIPR cAMP Rel EC50 [2] [nM] | hGLP1R cAMP Rel EC50 [3] [nM]
1 | YXEGTFISDYSILLDKKAQXEFVQWLLAGGPSSGAPPPS (D-Ala2; K17((2-[2-(2-Amino-ethoxy)-ethoxy]-acetyl)2-(γ-Glu)-CO-(CH2)16-CO2H); Aib20; C-terminal amide) [Example 27] | > 5000 | 0.0132 | > 5000
2 | YXEGTFISDYSILLDKKAQXEFVNWLLEGGPSSGAPPPS (D-Ala2; K17((2-[2-(2-Amino-ethoxy)-ethoxy]-acetyl)2-(γ-Glu)-CO-(CH2)16-CO2H); Aib20; C-terminal amide) [Example 28] | > 5000 | 0.0118 | > 5000
3 | YXEGTFISDYSILLDKKAQXEFVEWLLAGGPSSGAPPPS (D-Ala2; K17((2-[2-(2-Amino-ethoxy)-ethoxy]-acetyl)2-(γ-Glu)-CO-(CH2)16-CO2H); Aib20; C-terminal amide) [Example 29] | > 5000 | 0.00679 | > 5000
4 | Y[Aib]EGT[αMeF]ISDYSIALDKK([AEEA-AEEA-γGlu-C20 diacid])HQ[Aib]EFVNWLLAGGPSSGAPPPS-NH2 (N-terminus assumed; SMILES CC[C@H](C)[C@H](NC(=O)[C@H](CO)NC(=O)[C@H](Cc1ccc(O)cc1)NC(=O)[C@H](CC(=O)O)NC(=O)[C@H](CO)NC(=O)[C@@H](NC(=O)[C@](C)(Cc1ccccc1)NC(=O)[C@@H](NC(=O)CNC(=O)[C@H](CCC(=O)O)NC(=O)C(C)(C)NC(=O)[C@@H](N)Cc1ccc(O)cc1)[C@@H](C)O)[C@@H](C)CC)C(=O)N[C@@H](C)C(=O)N[C@@H](CC(C)C)C(=O)N[C@@H](CC(=O)O)C(=O)N[C@@H](CCCCN)C(=O)N[C@@H](CCCCNC(=O)COCCOCCNC(=O)COCCOCCNC(=O)CC[C@H](NC(=O)CCCCCCCCCCCCCCCCCCC(=O)O)C(=O)O)C(=O)N[C@@H](Cc1c[nH]cn1)C(=O)N[C@@H](CCC(N)=O)C(=O)NC(C)(C)C(=O)N[C@@H](CCC(=O)O)C(=O)N[C@@H](Cc1ccccc1)C(=O)N[C@H](C(=O)N[C@@H](CC(N)=O)C(=O)N[C@@H](Cc1c[nH]c2ccccc12)C(=O)N[C@@H](CC(C)C)C(=O)N[C@@H](CC(C)C)C(=O)N[C@@H](C)C(=O)NCC(=O)NCC(=O)N1CCC[C@H]1C(=O)N[C@@H](CO)C(=O)N[C@@H](CO)C(=O)NCC(=O)N[C@@H](C)C(=O)N1CCC[C@H]1C(=O)N1CCC[C@H]1C(=O)N1CCC[C@H]1C(=O)N[C@@H](CO)C(N)=O)C(C)C) [Example 25] | > 5000 | 0.0155 | 8.39
5 | Y[Aib]EGT[αMePhe(2-F)]ISDYSIALDKK([AEEA-AEEA-γGlu-C20 diacid])HQ[Aib]EFVNWLLAGGPSSGAPPPS-NH2 (N-terminus assumed; SMILES CC[C@H](C)[C@H](NC(=O)[C@H](CO)NC(=O)[C@H](Cc1ccc(O)cc1)NC(=O)[C@H](CC(=O)O)NC(=O)[C@H](CO)NC(=O)[C@@H](NC(=O)[C@](C)(Cc1ccccc1F)NC(=O)[C@@H](NC(=O)CNC(=O)[C@H](CCC(=O)O)NC(=O)C(C)(C)NC(=O)[C@@H](N)Cc1ccc(O)cc1)[C@@H](C)O)[C@@H](C)CC)C(=O)N[C@@H](C)C(=O)N[C@@H](CC(C)C)C(=O)N[C@@H](CC(=O)O)C(=O)N[C@@H](CCCCN)C(=O)N[C@@H](CCCCNC(=O)COCCOCCNC(=O)COCCOCCNC(=O)CC[C@H](NC(=O)CCCCCCCCCCCCCCCCCCC(=O)O)C(=O)O)C(=O)N[C@@H](Cc1c[nH]cn1)C(=O)N[C@@H](CCC(N)=O)C(=O)NC(C)(C)C(=O)N[C@@H](CCC(=O)O)C(=O)N[C@@H](Cc1ccccc1)C(=O)N[C@H](C(=O)N[C@@H](CC(N)=O)C(=O)N[C@@H](Cc1c[nH]c2ccccc12)C(=O)N[C@@H](CC(C)C)C(=O)N[C@@H](CC(C)C)C(=O)N[C@@H](C)C(=O)NCC(=O)NCC(=O)N1CCC[C@H]1C(=O)N[C@@H](CO)C(=O)N[C@@H](CO)C(=O)NCC(=O)N[C@@H](C)C(=O)N1CCC[C@H]1C(=O)N1CCC[C@H]1C(=O)N1CCC[C@H]1C(=O)N[C@@H](CO)C(N)=O)C(C)C) [Example 26] | > 5000 | 0.00991 | 5.69
6 | Y[Aib]EGT[αMeF]ISDYSIALDKK([AEEA-AEEA-γGlu-C18 diacid])HQ[Aib]DFVE[4Pal]LLAGGPSSGAPPPS-NH2 (N-terminus assumed; SMILES CC[C@H](C)[C@H](NC(=O)[C@H](CO)NC(=O)[C@H](Cc1ccc(O)cc1)NC(=O)[C@H](CC(=O)O)NC(=O)[C@H](CO)NC(=O)[C@@H](NC(=O)[C@](C)(Cc1ccccc1)NC(=O)[C@@H](NC(=O)CNC(=O)[C@H](CCC(=O)O)NC(=O)C(C)(C)NC(=O)[C@@H](N)Cc1ccc(O)cc1)[C@@H](C)O)[C@@H](C)CC)C(=O)N[C@@H](C)C(=O)N[C@@H](CC(C)C)C(=O)N[C@@H](CC(=O)O)C(=O)N[C@@H](CCCCN)C(=O)N[C@@H](CCCCNC(=O)COCCOCCNC(=O)COCCOCCNC(=O)CC[C@H](NC(=O)CCCCCCCCCCCCCCCCC(=O)O)C(=O)O)C(=O)N[C@@H](Cc1c[nH]cn1)C(=O)N[C@@H](CCC(N)=O)C(=O)NC(C)(C)C(=O)N[C@@H](CC(=O)O)C(=O)N[C@@H](Cc1ccccc1)C(=O)N[C@H](C(=O)N[C@@H](CCC(=O)O)C(=O)N[C@@H](Cc1ccncc1)C(=O)N[C@@H](CC(C)C)C(=O)N[C@@H](CC(C)C)C(=O)N[C@@H](C)C(=O)NCC(=O)NCC(=O)N1CCC[C@H]1C(=O)N[C@@H](CO)C(=O)N[C@@H](CO)C(=O)NCC(=O)N[C@@H](C)C(=O)N1CCC[C@H]1C(=O)N1CCC[C@H]1C(=O)N1CCC[C@H]1C(=O)N[C@@H](CO)C(N)=O)C(C)C) [Example 23] | > 5000 | 0.0192 | 206
7 | Ac-[dY]AEGT[αMePhe(2-F)]ISDYSIALDKK([AEEA-AEEA-γGlu-C18 diacid])HQ[Aib]EFVNYLLAGGPSSGAPPPS-NH2 (SMILES CC[C@H](C)[C@H](NC(=O)[C@H](CO)NC(=O)[C@H](Cc1ccc(O)cc1)NC(=O)[C@H](CC(=O)O)NC(=O)[C@H](CO)NC(=O)[C@@H](NC(=O)[C@](C)(Cc1ccccc1F)NC(=O)[C@@H](NC(=O)CNC(=O)[C@H](CCC(=O)O)NC(=O)[C@H](C)NC(=O)[C@@H](Cc1ccc(O)cc1)NC(C)=O)[C@@H](C)O)[C@@H](C)CC)C(=O)N[C@@H](C)C(=O)N[C@@H](CC(C)C)C(=O)N[C@@H](CC(=O)O)C(=O)N[C@@H](CCCCN)C(=O)N[C@@H](CCCCNC(=O)COCCOCCNC(=O)COCCOCCNC(=O)CC[C@H](NC(=O)CCCCCCCCCCCCCCCCC(=O)O)C(=O)O)C(=O)N[C@@H](Cc1c[nH]cn1)C(=O)N[C@@H](CCC(N)=O)C(=O)NC(C)(C)C(=O)N[C@@H](CCC(=O)O)C(=O)N[C@@H](Cc1ccccc1)C(=O)N[C@H](C(=O)N[C@@H](CC(N)=O)C(=O)N[C@@H](Cc1ccc(O)cc1)C(=O)N[C@@H](CC(C)C)C(=O)N[C@@H](CC(C)C)C(=O)N[C@@H](C)C(=O)NCC(=O)NCC(=O)N1CCC[C@H]1C(=O)N[C@@H](CO)C(=O)N[C@@H](CO)C(=O)NCC(=O)N[C@@H](C)C(=O)N1CCC[C@H]1C(=O)N1CCC[C@H]1C(=O)N1CCC[C@H]1C(=O)N[C@@H](CO)C(N)=O)C(C)C) [Example 30] | > 5000 | 0.00572 | > 5000
8 | Y[Aib]EGTFISDYSI[Aib]LDKK([AEEA-AEEA-γGlu-C18 diacid])HQ[Aib]DFVE[4Pal]LLAGGPSSGAPPPS-NH2 (N-terminus assumed; SMILES CC[C@H](C)[C@H](NC(=O)[C@H](Cc1ccccc1)NC(=O)[C@@H](NC(=O)CNC(=O)[C@H](CCC(=O)O)NC(=O)C(C)(C)NC(=O)[C@@H](N)Cc1ccc(O)cc1)[C@@H](C)O)C(=O)N[C@@H](CO)C(=O)N[C@@H](CC(=O)O)C(=O)N[C@@H](Cc1ccc(O)cc1)C(=O)N[C@@H](CO)C(=O)N[C@H](C(=O)NC(C)(C)C(=O)N[C@@H](CC(C)C)C(=O)N[C@@H](CC(=O)O)C(=O)N[C@@H](CCCCN)C(=O)N[C@@H](CCCCNC(=O)COCCOCCNC(=O)COCCOCCNC(=O)CC[C@H](NC(=O)CCCCCCCCCCCCCCCCC(=O)O)C(=O)O)C(=O)N[C@@H](Cc1c[nH]cn1)C(=O)N[C@@H](CCC(N)=O)C(=O)NC(C)(C)C(=O)N[C@@H](CC(=O)O)C(=O)N[C@@H](Cc1ccccc1)C(=O)N[C@H](C(=O)N[C@@H](CCC(=O)O)C(=O)N[C@@H](Cc1ccncc1)C(=O)N[C@@H](CC(C)C)C(=O)N[C@@H](CC(C)C)C(=O)N[C@@H](C)C(=O)NCC(=O)NCC(=O)N1CCC[C@H]1C(=O)N[C@@H](CO)C(=O)N[C@@H](CO)C(=O)NCC(=O)N[C@@H](C)C(=O)N1CCC[C@H]1C(=O)N1CCC[C@H]1C(=O)N1CCC[C@H]1C(=O)N[C@@H](CO)C(N)=O)C(C)C)[C@@H](C)CC) [Example 24] | > 5000 | 0.0699 | > 5000
